Target: strepAID (human, UniProt Q9GZX7 1-198)
Assay: EMSA

Chain of strepAID (Q9GZX7 whole entry): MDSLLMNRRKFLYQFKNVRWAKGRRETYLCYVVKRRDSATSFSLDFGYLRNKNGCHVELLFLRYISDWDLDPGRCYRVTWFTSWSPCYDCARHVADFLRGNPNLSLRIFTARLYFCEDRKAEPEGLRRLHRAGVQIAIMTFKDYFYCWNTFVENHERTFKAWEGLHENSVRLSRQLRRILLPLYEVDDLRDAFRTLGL

Binder | binding result
ATCGGAATGTATGAGAATAGAAGAGATAATGAATAATAGAA (ssDNA) [ssDNA (TCGend)] | binds
AUCGGAAUGUAUGAGAAUAGAAGAGAUAAUGAAUAAUAGAA (ssRNA) [ssRNA] | binds

From paper PMC2193777
